Measured values reported in PMC3510032.
Values belong to the molecule of their own block, whether it stands above or below them.

Assays:
[1] = biological target: GST-Shep isoform B/D (Drosophila (Oregon R)); experiment: pull-down; 2 µg GST or GST fusion protein immobilised on Glutathione-Agarose, 35 µg soluble His-Mod(mdg4)2.2 in 350 µL PBSMT (137 mM NaCl, 250 mM MgCl2, 0.3% Triton X-100, 1 mM DTT, 100 mg/mL BSA), 4°C, 2 h, 5 washes; bound protein detected by Western blotting
[2] = biological target: GST-Shep isoform E (Drosophila (Oregon R)); experiment: as above
[3] = biological target: GST-Shep isoform A (Drosophila (Oregon R)); experiment: as above
[4] = biological target: Shep (endogenous, embryo nuclear extract) (Drosophila (endogenous in embryos)) (UniProt Q8MSV2); experiment: co-IP; embryo nuclear extracts in HBSMT, α-Shep or pre-immune serum pre-conjugated to protein A sepharose, 1 h at 4°C; Western blotting
[5] = biological target: GST-Shep isoform B/D (Drosophila (Oregon R)); experiment: pull-down; GST or GST fusion protein immobilised on Glutathione-Agarose, soluble His-Su(Hw) in HBSM (50 mM HEPES pH 6.7, 150 mM NaCl, 5 mM KCl, 2.5 mM MgCl2) with 0.3% Triton-X 100, 0.2 M KCl, 1 mM DTT, 100 mg/mL BSA, 4°C, 2 h; bound protein detected by Western blotting
[6] = biological target: GST-Shep isoform E (Drosophila (Oregon R)); experiment: as above
[7] = biological target: GST-Shep isoform A (Drosophila (Oregon R)); experiment: as above

stoichiometry N [1]: 1 molar ratio
stoichiometry N [2]: 1 molar ratio
stoichiometry N [3]: 1 molar ratio
Molecule: His-Mod(mdg4)2.2 (natural protein)

percent of total recovered in the IP [4]: 0.1%
Molecule: Mod(mdg4)2.2 (endogenous, embryo nuclear extract) (natural protein)

stoichiometry N [5]: 1 molar ratio
stoichiometry N [6]: 1 molar ratio
stoichiometry N [7]: 1 molar ratio
B1: His-Su(Hw) (natural protein)
chain: MSASKEGKEKKGKLLGVENISPPKDKRPATRMKLLNDVGAGEDSEASTTTTTSRTPSNKQEKRGSVAGSRIKILNEEILGTPKTEKRGATKSTAPAASTVKILNEKKTPSATVTAVETTKIKTSPSKRKKMEHYVLQAVKSENTKADTTVTVVTEEDDTIDFILADDEEVVPGRIENNNGQEIVVTEDDEDLGEDGDEDGEDSSGKGNSSQTKIKEIVEHVCGKCYKTFRRVQSLKKHLEFCRYDSGYHLRKADMLKNLEKIEKDAVVMEKKDICFCCSESYDTFHLGHINCPDCPKSFKTQTSYERHIFITHSEFSDFPCSICNANLRSEALLALHEEQHKSRGKPYACKICGKDFTRSYHLKRHQKYSSCSSNETDTMSCKVCDRVFYRLDNLRSHLKQHLGTQVVKKPEYMCHTCKNCFYSLSTLNIHIRTHTGEKPFDCDLCDKKFSALVALKKHRRYHTGEKPYSCTVCNQAFAVKEVLNRHMKRHTGERPHKCDECGKSFIQATQLRTHSKTHIRPFPCEQCDEKFKTEKQLERHVKTHSRTKRPVFSCAECKRNFRTPALLKEHMDEGKHSPKQQRSSMRSAVKIMERTDCAICDKNFDSSDTLRRHIRTVHECDPDDIFGVEPHPSKRAKKDIESEEVVPVALNTSAGSLISSQTDGNGVVVREFLVDEGDGAAQTITLENETYTILPLDGAIEGEQLTDEAGVKPEAKKEEAQVSPVVKKEQRKSLAASLAAAIADNLEESCSEDDFSGEILTEEDIKLKENVGKLIDMLVDPPILKKYGWPNAPEETVLCKVIENCGHDLTKGGENYAELDYGSRMREYCKLLFTVVIHNDSIKSLLNNFPIDDVIEYVLGDEDQDEGGLDKDNESHSGDEEAVSVTGETKTNEIREKPEKKEVSAKSEKKEIVGKAVDKDNSEEVVRENKKKPVGEQEKA
